The results in this text go back to publication PMC7608914.

Broadly, the Kd is the concentration at which binding is half-saturated. A lower Kd goes with a tighter complex.

In the assay the target is Alexa488-labeled Nuc165 (human). Nature of the assay: fluorescence polarisation; HPF1 titrated from 16.8 μM to 0 μM into 5 nM Alexa488-labeled Nuc165; 50 mM Tris-HCl pH 8, 50 mM NaCl, 1 mM MgCl2, 0.1 mM EDTA, 0.1 mM TCEP, 0.01% NP-40; Hill model. On the technique in general: Fluorescence polarisation rises when a labelled molecule tumbles more slowly, as on binding a larger partner.

B1: Histone PARylation Factor 1 (natural protein)
chain: MVGGGGKRRPGGEGPQCEKTTDVKKSKFCEADVSSDLRKEVENHYKLSLPEDFYHFWKFCEELDPEKPSDSLSASLGLQLVGPYDILAGKHKTKKKSTGLNFNLHWRFYYDPPEFQTIIIGDNKTQYHMGYFRDSPDEFPVYVGINEAKKNCIIVPNGDNVFAAVKLFLTKKLREITDKKKINLLKNIDEKLTEAARELGYSLEQRTVKMKQRDKKVVTKTFHGAGLVVPVDKNDVGYRELPETDADLKRICKTIVEAASDEERLKAFAPIQEMMTFVQFANDECDYGMGLELGMDLFCYGSHYFHKVAGQLLPLAYNLLKRNLFAEIIEEHLANRSQENIDQLAA
In the case of B1, the Kd was determined as 1450 nM.
